# Source: patent publication US20230257458A1
# What was measured:
# IL-11 protein = IL-11 protein (UniProt P20809); test: ELISA, purchased IL-11 antibody (Abcam, ab130083) on IL-11, positive control
# IL-11-Fc protein = IL-11-Fc protein (UniProt P20809); test: competition ELISA: IL-11R-His coated, IL-11-Fc co-incubated with a concentration gradient of the antibody, detection with HRP goat anti-IgG-Fc; blocked partner IL-11R-His
# Sequence of IL-11-Fc protein (P20809 22-199 limits assumed): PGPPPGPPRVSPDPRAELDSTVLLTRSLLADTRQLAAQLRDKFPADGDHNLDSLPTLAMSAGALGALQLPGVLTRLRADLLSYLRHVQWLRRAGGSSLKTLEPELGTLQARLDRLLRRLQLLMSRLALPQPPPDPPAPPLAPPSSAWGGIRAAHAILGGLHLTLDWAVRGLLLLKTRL
# Sequence of IL-11 protein (P20809 22-199 limits assumed): as above
substance,measurement,setting,value
"6D9A1 (Abcam, ab130083) (antibody)",OD(450 nm) value,IL-11 protein,3.62
same,IC50 (read off the curve),IL-11-Fc protein,1 µg/mL
